Measurements taken from publication PMC5431883, “Enhancing Specific Disruption of Intracellular Protein Complexes by Hydrocarbon Stapled Peptides Using Lipid Based Delivery” (Scientific Reports, 2017).
Positions of bridges follow the written chain, without caps; N, C: chain ends. Non-standard residues stand in square brackets, D forms with d. R8 = C=CCCCCCC[C@@](C)(N)C(=O)O; S5 = C=CCCC[C@](C)(N)C(=O)O; Ahx = NCCCCCC(=O)O

Experiments:
Mdm2 (1-125) [1] = target: T1, Mdm2 (1-125) (UniProt Q00987 1-125); experiment: cell-based or functional assay
Mdm2 joined to HaloTag [2] = target: T2, Mdm2 joined to HaloTag (UniProt Q00987 1-491, HaloTag covalently labelled with a cell permeable fluorogenic substrate); experiment: FRET or BRET; nanoBRET in live HEK293 cells transfected with p53-nanoLUC and Mdm2-HaloTag; stapled peptide titrated (10 points), 0% FCS, signal after 4 hours; details: one partner purified
T2 construct: Mdm2 of the p53:Mdm2 NanoBRET System (Promega); Construct of a bought kit (Promega); source: HEK293, transiently transfected, in live cells

Mdm2 joined to HaloTag [3] = target: T2, Mdm2 joined to HaloTag; experiment: FRET or BRET; nanoBRET in live HEK293 cells transfected with p53-nanoLUC and Mdm2-HaloTag; stapled peptide titrated (10 points), 10% FCS, signal after 4 hours; details: one partner purified
Mdm2 (1-125) [4] = target: T1, Mdm2 (1-125); experiment: fluorescence polarisation; competitive fluorescence anisotropy (FA) assay on Mdm2 (1-125); Kd determined from the competition; details in the supplementary information; details: both partners purified

T1 sequence (Q00987 1-125): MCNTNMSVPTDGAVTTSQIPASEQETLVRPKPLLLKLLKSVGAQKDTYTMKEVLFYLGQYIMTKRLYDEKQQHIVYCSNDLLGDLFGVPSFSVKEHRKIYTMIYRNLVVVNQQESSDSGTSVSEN
T2 sequence (Q00987 whole entry): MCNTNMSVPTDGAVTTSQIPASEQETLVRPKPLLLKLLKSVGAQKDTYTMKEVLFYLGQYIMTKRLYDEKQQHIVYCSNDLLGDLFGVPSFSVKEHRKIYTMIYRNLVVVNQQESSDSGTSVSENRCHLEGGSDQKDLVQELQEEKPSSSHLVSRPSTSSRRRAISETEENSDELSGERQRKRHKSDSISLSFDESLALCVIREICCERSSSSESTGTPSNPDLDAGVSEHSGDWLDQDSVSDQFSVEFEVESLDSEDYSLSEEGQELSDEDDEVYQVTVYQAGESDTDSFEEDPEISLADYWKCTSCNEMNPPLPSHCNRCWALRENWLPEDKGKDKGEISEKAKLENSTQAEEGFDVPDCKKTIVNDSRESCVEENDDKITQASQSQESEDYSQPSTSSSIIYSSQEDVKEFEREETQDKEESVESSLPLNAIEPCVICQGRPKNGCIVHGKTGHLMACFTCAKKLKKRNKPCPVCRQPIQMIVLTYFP

Ac-KK[Ahx]TSF[R8]EYWALL[S5]ENF-NH2 (staple 7-14) [VIP-82] was tested, and the “EC50 of p53 activation, T22 p53 reporter cells (β-galactosidase), 0% FCS; blocks Mdm2:p53” value (Mdm2 (1-125) [1]) was 0.8 µM, the “EC50 of p53 activation, T22 p53 reporter cells (β-galactosidase), 10% FCS; blocks Mdm2:p53” value (Mdm2 (1-125) [1]) was 10 µM and the IC50 (Mdm2 joined to HaloTag [2]) was 3.9 ± 0.2 µM. For the same binder, the IC50 (Mdm2 joined to HaloTag [3]) was 17.5 ± 1.3 µM and the Kd (Mdm2 (1-125) [4]) was 24.4 ± 2.3 µM.
